In one series the target is flPOT1 WT;TPP1(87) (Homo sapiens;Homo sapiens, UniProt Q9NUX5;Q96AP0 1-634;1-458, |). Description: fluorescence polarization; FP: 20 mM Hepes pH 7.5, 100 mM KCl, 2 mM MgCl2, 1 mM EDTA, 2 mM DTT, 1 mg/ml BSA, 5% glycerol, 75 nM polyT50 competitor, 2.5 nM probe, room temperature 30 min. Particulars: protein: recombinant;recombinant, tags: N-terminal His6-pMocr, TEV-cleaved;N-terminal His6-MBP, copies: 1;1, label: 5' 6-FAM, single strand.

For the next series, the target named is flPOT1 P475L;TPP1(87) (Homo sapiens;Homo sapiens, UniProt Q9NUX5;Q96AP0 1-634;1-458, P475L|). The series is described as above. The following applies: protein: recombinant;recombinant, tags: N-terminal His6-pMocr, TEV-cleaved;N-terminal His6-MBP, copies: 1;1, label: 5' 6-FAM, single strand.
Chain of flPOT1 P475L;TPP1(87) (Q9NUX5 whole entry P475L, chain 1 of 2): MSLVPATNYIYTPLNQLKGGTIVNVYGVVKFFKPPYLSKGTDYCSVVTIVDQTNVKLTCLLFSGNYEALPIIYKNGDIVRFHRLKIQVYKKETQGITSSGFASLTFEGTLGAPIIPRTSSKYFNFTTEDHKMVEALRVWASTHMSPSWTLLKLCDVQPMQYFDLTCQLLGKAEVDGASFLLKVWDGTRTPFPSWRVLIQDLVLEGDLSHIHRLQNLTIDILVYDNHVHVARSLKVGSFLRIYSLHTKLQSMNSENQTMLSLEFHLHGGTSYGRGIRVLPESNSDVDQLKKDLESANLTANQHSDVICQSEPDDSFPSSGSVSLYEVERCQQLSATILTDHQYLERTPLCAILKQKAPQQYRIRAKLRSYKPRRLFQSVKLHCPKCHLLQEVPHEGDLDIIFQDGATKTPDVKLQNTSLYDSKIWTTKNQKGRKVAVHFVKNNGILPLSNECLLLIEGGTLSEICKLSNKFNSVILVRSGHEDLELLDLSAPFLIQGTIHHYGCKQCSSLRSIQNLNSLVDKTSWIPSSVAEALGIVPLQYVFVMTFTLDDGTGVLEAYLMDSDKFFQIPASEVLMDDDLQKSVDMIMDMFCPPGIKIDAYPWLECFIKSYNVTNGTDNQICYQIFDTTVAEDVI
Chain of flPOT1 P475L;TPP1(87) (Q96AP0 whole entry, chain 2 of 2): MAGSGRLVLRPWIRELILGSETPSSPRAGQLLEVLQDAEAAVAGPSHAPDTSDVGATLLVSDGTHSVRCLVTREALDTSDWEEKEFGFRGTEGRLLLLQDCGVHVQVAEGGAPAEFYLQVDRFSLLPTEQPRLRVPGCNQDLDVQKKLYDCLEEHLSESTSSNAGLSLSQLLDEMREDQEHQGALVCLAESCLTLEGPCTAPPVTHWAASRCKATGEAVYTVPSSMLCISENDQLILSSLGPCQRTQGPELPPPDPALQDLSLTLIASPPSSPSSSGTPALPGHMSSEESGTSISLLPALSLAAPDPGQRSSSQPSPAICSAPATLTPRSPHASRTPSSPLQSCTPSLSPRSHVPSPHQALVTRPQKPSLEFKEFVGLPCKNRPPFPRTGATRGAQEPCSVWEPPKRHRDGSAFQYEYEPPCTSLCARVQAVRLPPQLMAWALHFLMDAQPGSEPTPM
In the next series the target is flPOT1 P446Q;TPP1(87) (Homo sapiens;Homo sapiens, UniProt Q9NUX5;Q96AP0 1-634;1-458, P446Q|). The series is described as above. The following applies: protein: recombinant;recombinant, tags: N-terminal His6-pMocr, TEV-cleaved;N-terminal His6-MBP, copies: 1;1, label: 5' 6-FAM, single strand.
Chain of flPOT1 P446Q;TPP1(87) (Q9NUX5 whole entry P446Q, chain 1 of 2): as the sequence (Q9NUX5 whole entry P475L, chain 1 of 2) above, with P446Q, L475P counted along it
Chain of flPOT1 P446Q;TPP1(87) (Q96AP0 whole entry, chain 2 of 2): as the sequence (Q96AP0 whole entry, chain 2 of 2) above
In another series the target is flPOT1 C591W;TPP1(87) (Homo sapiens;Homo sapiens, UniProt Q9NUX5;Q96AP0 1-634;1-458, C591W|). The description is as above. Particulars: protein: recombinant;recombinant, tags: N-terminal His6-pMocr, TEV-cleaved;N-terminal His6-MBP, copies: 1;1, label: 5' 6-FAM, single strand.
Chain of flPOT1 C591W;TPP1(87) (Q9NUX5 whole entry C591W, chain 1 of 2): as the sequence (Q9NUX5 whole entry P475L, chain 1 of 2) above, with L475P, C591W counted along it
Chain of flPOT1 C591W;TPP1(87) (Q96AP0 whole entry, chain 2 of 2): as the sequence (Q96AP0 whole entry, chain 2 of 2) above
The target of another series is T1, flPOT1 Q623H (Homo sapiens, UniProt Q9NUX5 1-634, Q623H).
T1 sequence: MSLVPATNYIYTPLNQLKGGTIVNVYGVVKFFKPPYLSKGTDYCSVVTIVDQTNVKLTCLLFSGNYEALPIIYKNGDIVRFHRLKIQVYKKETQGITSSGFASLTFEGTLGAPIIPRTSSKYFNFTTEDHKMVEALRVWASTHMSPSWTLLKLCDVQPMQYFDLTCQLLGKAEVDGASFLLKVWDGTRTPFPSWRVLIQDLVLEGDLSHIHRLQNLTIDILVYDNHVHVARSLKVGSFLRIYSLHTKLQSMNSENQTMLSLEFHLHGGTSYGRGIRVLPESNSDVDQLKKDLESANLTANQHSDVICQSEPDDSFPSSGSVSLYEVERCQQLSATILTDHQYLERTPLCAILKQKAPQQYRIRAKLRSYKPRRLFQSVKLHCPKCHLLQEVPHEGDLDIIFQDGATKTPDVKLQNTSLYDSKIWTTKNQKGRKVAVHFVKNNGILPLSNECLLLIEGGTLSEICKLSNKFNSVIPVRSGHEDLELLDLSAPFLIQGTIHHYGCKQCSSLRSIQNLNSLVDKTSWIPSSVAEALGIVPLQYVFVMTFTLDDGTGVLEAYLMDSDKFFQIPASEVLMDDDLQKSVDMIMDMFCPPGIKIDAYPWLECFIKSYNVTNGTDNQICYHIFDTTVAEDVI
The series is described as above. Particulars: protein: recombinant; tags: N-terminal His6-pMocr, TEV-cleaved; label: 5' 6-FAM; single strand.

A further series has as its target POT1C;TPP1(PBD) (Homo sapiens;Homo sapiens, UniProt Q9NUX5;Q96AP0 330-634;169-251, |). Put plainly: fluorescence polarization; up to 5 uM protein; FP: 20 mM Hepes pH 7.5, 100 mM KCl, 2 mM MgCl2, 1 mM EDTA, 2 mM DTT, 1 mg/ml BSA, 5% glycerol, 75 nM polyT50 competitor, 2.5 nM probe, room temperature 30 min. The following applies: protein: recombinant;recombinant; tags: N-terminal His6-pMocr, TEV-cleaved;N-terminal His6, TEV-cleaved; copies: 1;1; label: 5' 6-FAM; single strand.

Another series addresses flPOT1 R477T;TPP1(87) (Homo sapiens;Homo sapiens, UniProt Q9NUX5;Q96AP0 1-634;1-458, R477T|). Put plainly: fluorescence polarization; wild-type affinity stated; FP: 20 mM Hepes pH 7.5, 100 mM KCl, 2 mM MgCl2, 1 mM EDTA, 2 mM DTT, 1 mg/ml BSA, 5% glycerol, 75 nM polyT50 competitor, 2.5 nM probe, room temperature 30 min. Particulars: protein: recombinant;recombinant, tags: N-terminal His6-pMocr, TEV-cleaved;N-terminal His6-MBP, copies: 1;1, label: 5' 6-FAM, single strand.

Another series concerns the target flPOT1 A532P;TPP1(87) (Homo sapiens;Homo sapiens, UniProt Q9NUX5;Q96AP0 1-634;1-458, A532P|). Described as above. The following applies: protein: recombinant;recombinant, tags: N-terminal His6-pMocr, TEV-cleaved;N-terminal His6-MBP, copies: 1;1, label: 5' 6-FAM, single strand.
For the next series, the target named is flPOT1 L343F;TPP1(87) (Homo sapiens;Homo sapiens, UniProt Q9NUX5;Q96AP0 1-634;1-458, L343F|). Described as above. The following applies: protein: recombinant;recombinant, tags: N-terminal His6-pMocr, TEV-cleaved;N-terminal His6-MBP, copies: 1;1, label: 5' 6-FAM, single strand.
Chain of flPOT1 L343F;TPP1(87) (Q96AP0 whole entry, stated change not applied, one chain of several): as the sequence (Q96AP0 whole entry, chain 2 of 2) above

Chain of POT1C;TPP1(PBD) (Q96AP0 169-251, one chain of several): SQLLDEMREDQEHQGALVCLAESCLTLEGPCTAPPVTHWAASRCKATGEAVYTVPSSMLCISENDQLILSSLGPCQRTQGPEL
Chain of flPOT1 A532P;TPP1(87) (Q96AP0 whole entry, stated change not applied, one chain of several): as the sequence (Q96AP0 whole entry, chain 2 of 2) above
Chain of flPOT1 R477T;TPP1(87) (Q96AP0 whole entry, stated change not applied, one chain of several): as the sequence (Q96AP0 whole entry, chain 2 of 2) above
Chain of flPOT1 WT;TPP1(87) (Q9NUX5 whole entry, chain 1 of 2): as the sequence (Q9NUX5 whole entry P475L, chain 1 of 2) above, with L475P counted along it
Chain of flPOT1 WT;TPP1(87) (Q96AP0 whole entry, chain 2 of 2): as the sequence (Q96AP0 whole entry, chain 2 of 2) above

B1: telomeric 18mer (TTAGGG)3 (ssDNA)
DNA: TTAGGGTTAGGGTTAGGG
As a reminder, the Kd is the constant that tells how readily two partners part at equilibrium. As for B1, the Kd in the series with flPOT1 WT;TPP1(87) was about 0.0058 µM; in the series with flPOT1 P475L;TPP1(87), 0.0107 ± 0.0014 µM; in the series with flPOT1 P446Q;TPP1(87), 0.0103 ± 0.001 µM; in the series with flPOT1 C591W;TPP1(87), 0.0156 ± 0.0025 µM; in the series with flPOT1 Q623H it was about 0.02 µM. The binding result with POT1C;TPP1(PBD) is listed as “no binding”; with flPOT1 R477T;TPP1(87), “binds”; with flPOT1 A532P;TPP1(87), “binds”; with flPOT1 L343F;TPP1(87) it was “binds”.

Source of the values: publication PMC5394233, “Structural and functional analysis of the human POT1-TPP1 telomeric complex” (Nature Communications, 2017).
